# Substitutions are numbered along the chain they refer to. Numbers in names are those of the source.
# T1: human NMI (N-myc Interacting protein), recombinant protein (human, UniProt Q13287 1-307, limits assumed)
# T1 construct: Gene ID: 9111; also called hNMI; antigen
# T1 sequence (looked up): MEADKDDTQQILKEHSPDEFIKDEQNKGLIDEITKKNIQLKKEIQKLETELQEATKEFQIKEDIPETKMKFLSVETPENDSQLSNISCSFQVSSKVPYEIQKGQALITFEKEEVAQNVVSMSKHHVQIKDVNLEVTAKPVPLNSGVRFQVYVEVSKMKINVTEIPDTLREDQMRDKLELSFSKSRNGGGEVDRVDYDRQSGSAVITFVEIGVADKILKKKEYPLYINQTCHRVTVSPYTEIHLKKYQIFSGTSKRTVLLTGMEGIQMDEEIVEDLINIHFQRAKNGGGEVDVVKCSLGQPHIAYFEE
# B1: 94C4 mutant D101S (VH) (antibody, V domains shown)
# VH: QSLEESGGGLVQPEGSLTLTCKASGFDFSSNAMCWVRQAPGKGLEWIACISSASSGSSGSTYYASWAKGRFTISKTSSTTVTLQMTSLTAADMATYFCARSGYDLWGPGTLVTVSS
# VL: QVLTQTPSSVSAAVGGTVTISCQSSPSVYNNYLSWFQQKPGQSPKLLIYRVSTLASGVPSRFSGSGSGTQFTLTISGVQCDDAATYYCAGGYDSASDTYVFGGGTEVVVK
# B2: 94C4 mutant S29D (VH) (antibody, V domains shown)
# VH: B1 VH with S29D, S101D
# VL: B1 VL
# B3: 94C4 mutant S52K (VH) (antibody, V domains shown)
# VH: B1 VH with S52K, S101D
# VL: B1 VL
# B4: 98G10 mutant G55H (VH) (antibody, V domains shown)
# VH: QEQLEESGGDLVKPEGSLTLTCTASGFSFSASYWICWVRQAPGKGLEWIACIYGHSSGSAYYASWAKGRFTISKTSSTTVTLQMTSLTAADTATYFCARAGYYNYGSAGDIYPSSFKLWGPGTLVTVSS
# VL: DIVMTQTPASVEAAVGGTVTINCQASQSISTALAWYQQKPGQPPKLLIYTASKVASGVPSRFSGSGSGTQFTLTISDLECADAATYYCQNYYYSSSSITFGGGTEVVVK
# B5: 98G10 mutant G55W (VH) (antibody, V domains shown)
# VH: B4 VH with H55W
# VL: B4 VL
# B6: 98G10 mutant S57R (VH) (antibody, V domains shown)
# VH: B4 VH with H55G, S57R
# VL: B4 VL
# B7: 98G10 mutant S57Q (VH) (antibody, V domains shown)
# VH: B4 VH with H55G, S57Q
# VL: B4 VL
# B8: 98G10 mutant S56N (VH) (antibody, V domains shown)
# VH: B4 VH with H55G, S56N
# VL: B4 VL
# B9: 98G10 mutant G58V (VH) (antibody, V domains shown)
# VH: B4 VH with H55G, G58V
# VL: B4 VL
# B10: 98G10 mutant S57K (VH) (antibody, V domains shown)
# VH: B4 VH with H55G, S57K
# VL: B4 VL
# B11: 98G10 mutant S56P (VH) (antibody, V domains shown)
# VH: B4 VH with H55G, S56P
# VL: B4 VL
# B12: 39B4 mutant Y102F (VH) (antibody, V domains shown)
# VH: QEQLVESGGGLVQPEGSLTLTCTASGFSFSSSYWICWVRQAPGKGLEWIACIYAGTSGSTYYASWAKGRFTISKTSSTTVDLQMNSLTAADTATYFCARAGFYTYGAGVYIYPSSFKLWGPGTLVTVSS
# VL: B4 VL with I2V, N22K, Q27E, S30G, T31N, T50S, K53N, V54L, N90S
# B13: 39B4 mutant A107R (VH) (antibody, V domains shown)
# VH: B12 VH with F102Y, A107R
# VL: B4 VL with I2V, N22K, Q27E, S30G, T31N, T50S, K53N, V54L, N90S
# B14: 39B4 mutant G106Y (VH) (antibody, V domains shown)
# VH: B12 VH with F102Y, G106Y
# VL: B4 VL with I2V, N22K, Q27E, S30G, T31N, T50S, K53N, V54L, N90S
# B15: 39B4 mutant V109Q (VH) (antibody, V domains shown)
# VH: B12 VH with F102Y, V109Q
# VL: B4 VL with I2V, N22K, Q27E, S30G, T31N, T50S, K53N, V54L, N90S
# B16: 39B4 mutant G106R (VH) (antibody, V domains shown)
# VH: B12 VH with F102Y, G106R
# VL: B4 VL with I2V, N22K, Q27E, S30G, T31N, T50S, K53N, V54L, N90S
# B17: 39B4 mutant V109K (VH) (antibody, V domains shown)
# VH: B12 VH with F102Y, V109K
# VL: B4 VL with I2V, N22K, Q27E, S30G, T31N, T50S, K53N, V54L, N90S
# B18: 39B4 mutant A107Q (VH) (antibody, V domains shown)
# VH: B12 VH with F102Y, A107Q
# VL: B4 VL with I2V, N22K, Q27E, S30G, T31N, T50S, K53N, V54L, N90S
# B19: B-8-5 (antibody, V domains shown)
# VH: QSLEESGGDLVKPGASLTLTCTASGFSFSSSYYMCWVRQAPGKGLEWIACIYAGSSGSTYYASWAKGRFTISKTSSTTVTLQMTSLTAADTATYFCAREYSYDDYGDFWGANLWGPGTLVTVSS
# VL: ALVMTQTPSSVSAAVGGTVTINCQASQNIYTNLAWYQQKPGQPPKLLIYGASNLESGVPSRFKGSGSGTEYTLTISDLECDDAATYYCQSSLYSRIADRANAFGGGTEVVVK
# notes: also called B-8 F111A (VH)
# B20: B-8-3 (antibody, V domains shown)
# VH: B19 VH with Y33E, A111F
# VL: B19 VL
# notes: also called B-8 Y33E (VH)
# B21: B-8-2 (antibody, V domains shown)
# VH: B19 VH with A111F
# VL: B19 VL with S91R
# notes: also called B-8 S91R (VL)
# B22: B-8-1 (antibody, V domains shown)
# VH: B19 VH with A111F
# VL: B19 VL with Y93E
# notes: also called B-8 Y93E (VL)
# B23: B-8-4 (antibody, V domains shown)
# VH: B19 VH with Y61E, A111F
# VL: B19 VL
# notes: also called B-8 Y61E (VH)
# B24: B-8 mutant G106K (VH) (antibody, V domains shown)
# VH: B19 VH with G106K, A111F
# VL: B19 VL
# B25: B-8 mutant T31V (VL) (antibody, V domains shown)
# VH: B19 VH with A111F
# VL: B19 VL with T31V
# B26: B-8 mutant S101K (VH) (antibody, V domains shown)
# VH: B19 VH with S101K, A111F
# VL: B19 VL
# B27: B-8 mutant S101Y (VH) (antibody, V domains shown)
# VH: B19 VH with S101Y, A111F
# VL: B19 VL
# Target: T1, human NMI (N-myc Interacting protein), …
# Experiment: ELISA EC50 against parent 94C4
row,Binder,Fold decrease in affinity [fold]
1,B1,> 500
2,B2,> 500
3,B3,> 500

# Target: T1, human NMI (N-myc Interacting protein), …
# Experiment: ELISA EC50 against parent 98G10
row,Binder,Fold decrease in affinity [fold]
1,B4,> 100
2,B5,> 100
3,B6,> 500
4,B7,> 500
5,B8,> 500
6,B9,> 100
7,B10,> 500
8,B11,> 500

# Target: T1, human NMI (N-myc Interacting protein), …
# Experiment: ELISA EC50 against parent 39B4
row,Binder,Fold decrease in affinity [fold]
1,B12,> 500
2,B13,> 500
3,B14,> 500
4,B15,> 500
5,B16,> 500
6,B17,> 500
7,B18,> 500

# Target: T1, human NMI (N-myc Interacting protein), …
# Experiment: ELISA, binding to hNMI
row,Binder,EC50 [nM]
1,B19,0.238
2,B20,0.176
3,B21,1.45
4,B22,0.698
5,B23,0.177

# Target: T1, human NMI (N-myc Interacting protein), …
# Experiment: ELISA EC50 against parent B-8
row,Binder,Fold decrease in affinity [fold]
1,B24,> 100
2,B25,> 100
3,B26,> 500
4,B27,> 500

# Target: T1, human NMI (N-myc Interacting protein), …
# Experiment: ELISA EC50 against parent B-8
# Remark: another data set of the same source
row,Binder,Fold decrease in affinity [fold]
1,B19,0.77
2,B20,0.57
3,B21,4.68
4,B22,2.26
5,B23,0.57

# — patent EP4682166A1 (Guangzhou Enmai Biotechnology Co., Ltd, dated 2026)
